Assays:
[1] = target: retromer (VPS26–VPS29–VPS35) (UniProt O75436); assay: SEC-MALS
human VPS29 (human) = human VPS29 (human) (UniProt Q9UBQ0); assay: ITC
[2] = target: retromer (VPS26–VPS29–VPS35) (UniProt O75436); assay: ITC

RidL (Lpg2311/Ceg28), full length (from UniProt Q5ZT54 1-1167) (natural protein)
stoichiometry N (RidL per retromer (printed as 1:1)) [1]: 1
stoichiometry N (RidL per retromer (printed as 2:2)) [1]: 1
Kd (human VPS29 (human)): 181 nM
Kd [2]: 151 nM

RidL_(30–236) (domain or fragment)
Kd [2]: 164 nM

TBC1D5TBC (TBC GAP domain of human TBC1D5, residues 1–419) (from UniProt Q92609 1-419) (domain or fragment)
Kd [2]: 450 nM

VARPc (VARP residues 396–746, the two cysteine-rich domains) (from UniProt Q96NW4 396-746) (domain or fragment)
Kd [2]: 3000 nM

retromer (VPS26–VPS29–VPS35) (from UniProt O75436;Q9UBQ0;Q96QK1) (complex)
stoichiometry N [1]: 2

Reference: publication PMC5748213
